Source: the supplement of paper PMC7877785
± gives the uncertainty stated by the source.

Assay: self-splicing fitness, log relative to wild type (ln ratio); higher = more splicing; Tetrahymena group I intron in knt gene, E. coli kanamycin selection, DiMSum; sequences stand for … in CUCUCU…GGAGGGAAAAGUUAUCAGGCAUGCACCUGGUAGCUAGUCUUUAAACCAAUAGAUUGCAUCGGUUUAAAAGGCAAGACCGUCAAAUUGCGGGAAAGGGGUCAACAGCCGUUCAGUACCAAGUCUCAGGGGAAACUUUGAGAUGGCCUUGCAAAGGGUAUGGUAAUAAGCUGACGGACAUGGUCCUAACCACGCAGCCAAGUCCUAAGUCAACAGAUCUUCUGUUGAUAUGGAUGCAGUUCACAGACUAAAUGUCGGUCGGGGAAGAUGUAUUCUUCUCAUAAGAUAUAGUCGGACCUCUCCUUAAUGGGAGCUAGCGGAUGAAGUGAUGCAACACUGGAGCCGCUGGGAACUAAUUUGUAUGCGAAAGUAUAUUGAUUAGUUUUGGAGUACUCGUGGUCG
How it was run: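 Pooled colonies went to amplicon sequencing on an Illumina HiSeq 2500 after six replicate transformations. The plates were LB agar with 100 μg/mL carbenicillin, 50 μM IPTG and 0.2% rhamnose, with or without 25 μg/mL kanamycin, incubated overnight at 37°C or 30°C. The E. coli BL21(DE3) library had all eight P1ex-region intron nucleotides randomised, the intron placed in the knt kanamycin-resistance gene on pET-22b(+). DiMSum fitness is the error-weighted combination of replicate fold changes, kanamycin against none, normalised to wild type.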

| Sequence | self-splicing fitness (ln) (30 °C) | self-splicing fitness (ln) (37 °C) |
| --- | --- | --- |
| ACCAAGCAAUAUUACGAACA | -2.91 ± 0.16 | -0.543 ± 0.089 |
| ACCAAGCAAUAUUACGAAUU | -3.46 ± 0.17 | -2.13 ± 0.14 |
| ACCAAGCAAUAUUACGAGCU | -1.62 ± 0.056 | -0.791 ± 0.072 |
| ACCAAGCAAUAUUACGAGGA | -3.15 ± 0.19 | -2.7 ± 0.16 |
| ACCAAGCAAUAUUACGAGGG | -2.88 ± 0.15 | -1.49 ± 0.12 |
| ACCAAGCAAUAUUACGCAUC | -3.18 ± 0.11 | -1.74 ± 0.11 |
| ACCAAGCAAUAUUACGCCAA | -1.97 ± 0.18 | -2.71 ± 0.23 |
| ACCAAGCAAUAUUACGCGCG | -1.5 ± 0.074 | -0.523 ± 0.081 |
| ACCAAGCAAUAUUACGCGUU | -1.91 ± 0.06 | -0.292 ± 0.075 |
| ACCAAGCAAUAUUACGCUUU | -2.41 ± 0.093 | -1.45 ± 0.1 |
| ACCAAGCAAUAUUACGGAUA | -2.56 ± 0.14 | -1.56 ± 0.12 |
| ACCAAGCAAUAUUACGGCGC | 0.119 ± 0.092 | -0.413 ± 0.11 |
| ACCAAGCAAUAUUACGGGGA | -2.16 ± 0.09 | -1.85 ± 0.098 |
| ACCAAGCAAUAUUACGGGUG | -1.05 ± 0.043 | -0.597 ± 0.059 |
| ACCAAGCAAUAUUACGGUAG | -4.33 ± 0.16 | -2.5 ± 0.14 |
| ACCAAGCAAUAUUACGUAAA | -2.62 ± 0.13 | -1.38 ± 0.16 |
| ACCAAGCAAUAUUACGUAGU | -2.49 ± 0.078 | -1.75 ± 0.088 |
| ACCAAGCAAUAUUACGUCAU | -3.16 ± 0.096 | -1.71 ± 0.09 |
| ACCAAGCAAUAUUACGUCGC | -3.25 ± 0.19 | -1.27 ± 0.14 |
| ACCAAGCAAUAUUACGUGCA | -0.837 ± 0.065 | -0.466 ± 0.074 |
| ACCAAGCAAUAUUACGUGGA | -2.92 ± 0.14 | -1.49 ± 0.11 |
| ACCAAGCAAUAUUACGUUGU | -2.74 ± 0.094 | -0.985 ± 0.085 |
| ACCCAGCAAUAUUACGAACG | -3.06 ± 0.14 | -1.4 ± 0.14 |
| ACCCAGCAAUAUUACGACCC | -1.06 ± 0.13 | 0.555 ± 0.18 |

| Sequence | self-splicing fitness (ln) (30 °C) | self-splicing fitness (ln) (37 °C) |
| --- | --- | --- |
| ACCCAGCAAUAUUACGCGCA | -0.821 ± 0.061 | -0.299 ± 0.075 |
| ACCCAGCAAUAUUACGCGGG | -3.6 ± 0.13 | -3.08 ± 0.16 |
| ACCCAGCAAUAUUACGCGUA | -0.599 ± 0.07 | -1.08 ± 0.062 |
| ACCCAGCAAUAUUACGCGUC | -2.16 ± 0.088 | -1.42 ± 0.11 |
| ACCCAGCAAUAUUACGCUGA | -1.63 ± 0.087 | -0.241 ± 0.092 |
| ACCCAGCAAUAUUACGCUGU | -1.86 ± 0.075 | -0.908 ± 0.098 |
| ACCCAGCAAUAUUACGCUUA | -0.429 ± 0.07 | -0.188 ± 0.078 |
| ACCCAGCAAUAUUACGGACU | -0.261 ± 0.044 | 0.0991 ± 0.059 |
| ACCCAGCAAUAUUACGGAUC | -2.82 ± 0.085 | -1.16 ± 0.089 |
| ACCCAGCAAUAUUACGGAUU | -0.86 ± 0.048 | -0.157 ± 0.061 |
| ACCCAGCAAUAUUACGGCAC | -0.669 ± 0.079 | 0.0747 ± 0.12 |
| ACCCAGCAAUAUUACGGUUG | -3.66 ± 0.18 | -2.3 ± 0.19 |
| ACCCAGCAAUAUUACGUAAC | -1.49 ± 0.065 | -1.17 ± 0.1 |
| ACCCAGCAAUAUUACGUGGG | -3.34 ± 0.11 | -2.3 ± 0.13 |
| ACCCAGCAAUAUUACGUUAG | -3.31 ± 0.11 | -3.09 ± 0.15 |
| ACCGAGCAAUAUUACGAAGC | -3.47 ± 0.36 | -2.76 ± 0.36 |
| ACCGAGCAAUAUUACGACCG | -2.92 ± 0.22 | -1.52 ± 0.21 |
| ACCGAGCAAUAUUACGAGCU | -2.94 ± 0.23 | -2.54 ± 0.28 |
| ACCGAGCAAUAUUACGAUAA | -3.72 ± 0.23 | -2.01 ± 0.2 |
| ACCGAGCAAUAUUACGAUAU | -3.68 ± 0.18 | -1.54 ± 0.14 |
| ACCGAGCAAUAUUACGAUCG | -3.05 ± 0.33 | -1.64 ± 0.27 |
| ACCGAGCAAUAUUACGAUGA | -2.47 ± 0.17 | -2.73 ± 0.28 |
| ACCGAGCAAUAUUACGAUUU | -2.41 ± 0.11 | -0.954 ± 0.11 |
